Measurements published in patent publication US20210238308A1.

Key:
Experiment in all cases: SPR, Protein L capture
human FcRn (human) = human FcRn (human) (UniProt P55899)
[1] = target: PRYSPRY domain of human TRIM21 with N-terminal 6xHis tag (human)
[2] = target: PRYSPRY domain of mouse TRIM21 with N-terminal 6xHis tag (mouse)
PRYSPRY domain of mouse TRIM21 with N-terminal 6xHis tag (mouse), sequence (chain, as listed by the source limits assumed): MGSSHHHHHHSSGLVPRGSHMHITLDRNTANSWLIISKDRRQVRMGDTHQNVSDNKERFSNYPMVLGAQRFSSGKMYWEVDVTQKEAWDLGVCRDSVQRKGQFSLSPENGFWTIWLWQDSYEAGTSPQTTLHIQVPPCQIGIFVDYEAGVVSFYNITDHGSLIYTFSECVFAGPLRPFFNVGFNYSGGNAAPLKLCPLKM

PRYSPRY domain of human TRIM21 with N-terminal 6xHis tag (human), sequence (chain, as listed by the source limits assumed): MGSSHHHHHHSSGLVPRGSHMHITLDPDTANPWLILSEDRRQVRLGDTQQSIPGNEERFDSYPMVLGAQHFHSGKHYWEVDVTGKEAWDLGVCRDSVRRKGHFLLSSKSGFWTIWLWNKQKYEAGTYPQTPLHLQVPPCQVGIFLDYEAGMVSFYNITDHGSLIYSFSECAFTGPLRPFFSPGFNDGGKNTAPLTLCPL

hFcRn binding level ratio (variant/control antibody) (human FcRn (human))	hTRIM21 binding level ratio (variant/control antibody) [1]	Substance	further results
0.09	–	MRAH-G1d/MRAL-KT0 L309Q (antibody)	–
–	0.096	MRAH-G1d/MRAL-KT0 E345K (antibody)	–
0.08	–	MRAH-G1d/MRAL-KT0 L432A (antibody)	–
–	0.099	MRAH-G1d/MRAL-KT0 L432R (antibody)	–
–	–	MRAH-G1d/MRAL-KT0 N434H (antibody)	mTRIM21 binding level ratio (variant/control antibody) [2]: 0.097
